These results are taken from patent KR20200059381A.

Assay [1] concerns the target 구제역 바이러스 혈청형 O 배양액(cal1~cal4) (Foot-and-mouth disease virus serotype O). As to the kind of experiment: sandwich ELISA, cal2, 1E58 coat 2 ug/ml, 1E58-HRP 0.4 ug/ml, 450 nm. (In an ELISA, binding on a coated surface is turned into a signal by an enzyme label.)
Assay [2] has the same target. As to the kind of experiment: sandwich ELISA, cal4, 1E58 coat 8 ug/ml, 1E58-HRP 0.2 ug/ml, 450 nm.

B1: 단클론항체 1E58 (antibody, V domains shown)
VH: EFQLQQSRPELAKPGASVKISCKTSGHTFTTYTMHWVKQSHVKSLEWIGCFNPNNGGATYNQKFKGKATLTMDKSSNTAYVEVRSLTSDDSAVYYCAYGNYVNFDYWGQGTTLTVSS
VL: DIVLTQSPASLAVSLGQRATISYRASKSVSTSGYSYMHWNQQKPGQPPRLLIYLVSNLESGVPARFSGSGSGTDFTLNIHPVEEEDAATYYCQHIRELTRSEGGPSWKN
B1: the figures for the O.D in assay [1] and in assay [2] were 2.49 O.D and 0.27 O.D, respectively.
